Laboratory results taken from the supplement of paper PMC7125110.
± gives the standard error. For part of these data: Fewer inactive variants are shown than the library holds.

B1: glmS ribozyme (parent)
chain: AUAAAAGCGCCAGAACUACAGAAAUGUAGUUGACGAGGAGGAGGUUUAUCGAAUUUUCGGCGGAUGCCUCCAAA

Legend:
Conditions in all cases: with glucosamine-6-phosphate
glucosamine-6-phosphate [1] = variants of: B1; test: kcat; higher = faster cleavage; RNA array
Summary of the method: (§1)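 Barcoded ribozyme variants were transcribed in situ on sequenced MiSeq chips by E. coli RNA polymerase. At 37 °C, a hybridised Cy3 probe tracked them while glucosamine-6-phosphate (40 μM to 10 mM) in HEPES/KCl/Mg(OAc)2 buffer flowed in and tiles were imaged over ~14 h. Per-tile medians of signals normalised to baseline and to non-cleaving reference variants were fit to one- or two-exponential decays, giving kobs. kcat and KM came from weighted Michaelis–Menten fits across concentrations.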

glucosamine-6-phosphate [2] = variants of: B1; test: KM; higher = weaker cofactor use; RNA array
Summary of the method: as §1

glucosamine-6-phosphate [3] = variants of: B1; test: self-cleavage kobs at 40 uM GlcN6P; higher = faster cleavage; RNA array
Summary of the method: as §1

glucosamine-6-phosphate [4] = variants of: B1; test: self-cleavage kobs at 160 uM GlcN6P; higher = faster cleavage; RNA array
Summary of the method: as §1

glucosamine-6-phosphate [5] = variants of: B1; test: self-cleavage kobs at 640 uM GlcN6P; higher = faster cleavage; RNA array
Summary of the method: as §1

glucosamine-6-phosphate [6] = variants of: B1; test: self-cleavage kobs at 2500 uM GlcN6P; higher = faster cleavage; RNA array
Summary of the method: as §1

glucosamine-6-phosphate [7] = variants of: B1; test: self-cleavage kobs at 10000 uM GlcN6P; higher = faster cleavage; RNA array
Summary of the method: as §1

Row | Variant | kcat (glucosamine-6-phosphate [1]) [s⁻¹] | KM (glucosamine-6-phosphate [2]) [µM] | self-cleavage kobs at 40 uM GlcN6P (glucosamine-6-phosphate [3]) [s⁻¹] | self-cleavage kobs at 160 uM GlcN6P (glucosamine-6-phosphate [4]) [s⁻¹] | self-cleavage kobs at 640 uM GlcN6P (glucosamine-6-phosphate [5]) [s⁻¹] | self-cleavage kobs at 2500 uM GlcN6P (glucosamine-6-phosphate [6]) [s⁻¹] | self-cleavage kobs at 10000 uM GlcN6P (glucosamine-6-phosphate [7]) [s⁻¹]
1 | AUAAAAGCGCCAGAACUACAGAAAUGUAGUUGACGAGGUUGAGGUUUAUCGAAUUUUCGGCGGAUGCCUCCAAA | 0.00237 ± 0.00036 | 997 ± 220 | 9.94e-05 ± 1.5e-05 | 0.000285 ± 4.1e-05 | 0.00112 ± 0.00016 | 0.00163 ± 0.00025 | 0.00209 ± 0.00044
2 | AUAAAAGCGCCAGAACUACAGAAAUGUAGUUGACGAGGAGGAGGUUUAUCGGAUUUUCGGCGGAUGCGUCCAAA | 5.61e-05 ± 9.7e-06 |  |  |  | 6.55e-05 ± 1.4e-05 | 7.16e-05 ± 1.2e-05 | 4.28e-05 ± 8.7e-06
3 | AUAAAAGCGCCAGAACUACAGAAAUGUAGUUGACGAGGAAGAGGUUUAUCGAAUUUUCGGCGGAUUCCUCCAAA | 0.000238 ± 1.9e-05 | 2050 ± 330 |  |  | 6.02e-05 ± 1.2e-05 | 0.000124 ± 2e-05 | 0.000203 ± 3.5e-05
4 | AUAAAAGCGCCAGAACUACAGAAAUGUAGUUGACGAGGAGGAGGUUUAUCGAAUUUUCGGCGCAGGCCUCCAAA | < 1e-05 |  | < 1e-05 | < 1e-05 |  |  | < 1e-05
5 | AUAAAAGCGCCAGAACUACAGAAAUGUAGUUGACGAGGAGGAGGUUUAUCGAAUUAUAGGCGGAUGCCUCCAAA | 0.00106 ± 0.00052 |  |  | 3.2e-05 ± 1.1e-05 | 0.000101 ± 1.3e-05 | 0.000187 ± 2.3e-05 | 0.000605 ± 5.6e-05
6 | AUAAAAGCGCCGGCACUACAGAAAUGUAGUUGACGAGGAGGAGGUUUAUCGAAUUUUCGGCGGAUGCCUCCAAA | 0.000175 ± 3.9e-06 | 2970 ± 160 |  |  | 3.2e-05 ± 7.2e-06 | 7.78e-05 ± 1.1e-05 | 0.000135 ± 1.1e-05
7 | AUAAAAGCGCCAGAACUACAGAAAUGUAGUUAACGAGGAGGAGGUUUAUCGAAUUUUCGGCGGAUACCUCCAAA | 0.00312 ± 0.0006 | 6290 ± 1700 |  |  | 0.000269 ± 6.9e-05 | 0.000911 ± 0.00018 | 0.0019 ± 0.00044
8 | AUAAAAGCGCCAGAACUACAGAAAUGUAGUUGACGAGGAGAAGGUUUAUCGAUUUUUCGGCGGAUGCCUCCAAA | 0.000693 ± 8.4e-05 | 562 ± 120 | 5.42e-05 ± 9e-06 | 0.00012 ± 3.1e-05 | 0.000358 ± 5.8e-05 | 0.00063 ± 0.00014 | 0.000656 ± 0.0001
